Results from article PMC5518672 (Nature structural & molecular biology, 2013).

Experiments:
SEC [1] = molecular target: the molecule itself; test: SEC
SEC [2] = molecular target: the molecule itself; test: SEC; remark: listed apart in the source
SEC-MALS = molecular target: the molecule itself; test: SEC-MALS

B1: recombinant full-length Aplysia CPEB (His6-CPEB fusion protein) (natural protein)
chain: not shown
SEC [1]
  stoichiometry N: > 10
SEC [2]
  stoichiometry N: ≥ 10
SEC-MALS
  stoichiometry N: 3
